Results on three molecules are retold here after patent US20250122303A1 (HUMMINGBIRD BIOSCIENCE PTE, published 2025).

The target of test [1] is T1, human HER3 polypeptide (human, UniProt P21860 20-643).
T1 construct: Recombinant antigen of the ELISAs; also called human HER3 (Sino Biological Inc.); human antigen HER3
Briefly: ELISA, plate coated with human HER3, antibody titrated, absorbance 450 nm, x axis Log([Ab]) (ug/ml). (In general: An ELISA detects its analyte on a solid surface through an enzyme-linked reagent.)

Test [2] addresses T2, His-tagged human HER3 (human, UniProt P21860 20-643).
T2 construct: Antigen of the BLI experiments and of the HER2-Fc dimerisation ELISA; also called HER3 His; not shown: His tag
Briefly: BLI (Octet QK384), antibody on anti-human IgG capture tips, His-tagged human HER3 35-278 nM, global 1:1 fit. The procedure: (§1) The anti-HER3 antibody clones in IgG1 format were analysed for binding affinity to human HER3. Bio-Layer Interferometry (BLI) experiments were performed using the Octet QK384 system (ForteBio). anti-Human IgG Capture (AHC) Octet sensor tips (Pall ForteBio, USA) were used to anti-HER3 antibodies (25 nM). All measurements were performed at 25° C. with agitation at 1000 rpm. […] Sensograms were referenced for buffer effects and then fitted using the Octet QK384 user software (Pall ForteBio, USA). Kinetic responses were subjected to a global fitting using a one site binding model to obtain values for association (Kₒₙ), dissociation (Koff) rate constants and the equilibrium dissociation constant (KD). Only curves that could be reliably fitted with the software (R²>0.90) were included in the analysis.

Test [3] addresses T2, His-tagged human HER3. Briefly: BLI (Octet QK384), antibody on anti-human IgG capture tips, His-tagged human HER3 in solution, global 1:1 fit, R^2 = 0.9891, kon Error 1.04E+04; Response 0.1355 / 0.3221 / 0.4533 / 0.5944 at 35 / 39 (as printed in the table; graph label 69) / 139 / 278 nM. The procedure:
as §1
For orientation: In BLI a coated tip is dipped into the sample, and binding shifts an interference pattern.

Test [4] concerns the target T2, His-tagged human HER3. Briefly: BLI (Octet QK384), antibody on anti-human IgG capture tips, His-tagged human HER3 in solution, global one-site fit. The protocol:
as §1

Test [5] has as its target T3, human HER3 expressed on cells (HEK293 HER3 O/E cells) (human, UniProt P21860 20-1342).
T3 construct: Also used here for HER3 on U2OS cells of the PathHunter kit and on cancer cell lines; also called HEK293 cells transfected with vector encoding human HER3; human HER3-expressing cells
Briefly: flow cytometry, HEK293 cells overexpressing human HER3 (293_OE HER3), 20 ug/ml antibody, FITC anti-Fc secondary; same antibody on 293 cells: 2.48; unstained 293: 0.14. The procedure:
(§2) The cells were washed thrice with FACS buffer (PBS with 5 mM EDTA and 0.5% BSA) and resuspended in FITC-conjugated anti-FC antibody (Invitrogen, USA) for 40 min at 2-8° C. Cells were washed again and resuspended in 200 μL of FACS flow buffer (PBS with 5 mM EDTA) for flow cytometric analysis using MACSQuant 10 (Miltenyi Biotec, Germany). After acquisition, all raw data were analyzed using Flowlogic software. Cells were gated using forward and side scatter profile percentage of positive cells was determined for native and overexpressing cell populations.
A general note: In flow cytometry, cells or beads pass a laser one at a time.

The target of test [6] is T2, His-tagged human HER3. Description: BLI (Octet QK384), antibody on anti-human IgG capture tips, His-tagged human HER3 in solution, global 1:1 fit, R^2 = 0.9917, kon Error 9.57E+03; Response 0.1296 / 0.2851 / 0.4098 / 0.5575 at 35 / 69 / 139 / 278 nM. The procedure: as §1
The target in test [7] is T3, human HER3 expressed on cells (HEK293 …). Briefly: flow cytometry, HEK293 cells overexpressing human HER3 (293_OE HER3), 20 ug/ml antibody, FITC anti-Fc secondary; same antibody on 293 cells: 5.38; unstained 293: 0.14. The procedure: as §2
Test [8] addresses T2, His-tagged human HER3. Briefly: BLI (Octet QK384), antibody on anti-human IgG capture tips, His-tagged human HER3 35-278 nM, global 1:1 fit; kdis Error 1.11E-04. The protocol:
as §1

Test [9] has as its target T4, rat HER3 (rat, UniProt Q62799 20-641, limits assumed).
T4 construct: also called rat homologue of HER3 (Sino Biological Inc.); R. norvegicus HER3
Description: ELISA, plate coated with 0.1 ug/ml rat HER3, antibody titrated, absorbance 450 nm. The protocol:
(§3) ELISAs were used to determine the binding specificity of the antibodies. The antibodies were analysed for binding to human HER3 polypeptide, as well as respective mouse, rat and monkey homologues of HER3 (Sino Biological Inc., China). The antibodies were also analysed for their ability to bind to human EGFR and human HER2 (Sino Biological Inc., China).
(§4) ELISAs were carried out according to standard protocols. Briefly, 96-well plates (Nunc, Denmark) were coated with 0.1 μg/ml of target polypeptide in phosphate-buffered saline (PBS) for 16 h at 4° C. After blocking for 1 h with 1% BSA in Tris buffer saline (TBS) at room temperature, the anti-HER3 antibody was serially diluted with the highest concentration being 10 μg/ml, and added to the plate. Post 1 h incubation at room temperature, plates were washed three times with TBS containing 0.05% Tween 20 (TBS-T) and were then incubated with a HRP-conjugated […] antibody (Life Technologies, Inc., USA) for 1 h at room temperature. After washing, plates were developed with colorimetric detection substrate 3,3′,5,5′-tetramethylbenzidine (Turbo-TMB; Pierce, USA) for 10 min. The reaction was stopped with 2M H₂SO₄, and OD was measured at 450 nm.

Test [10] addresses T1, human HER3 polypeptide. Description: ELISA, plate coated with 0.1 ug/ml human HER3, antibody titrated, absorbance 450 nm. The protocol:
as §3, §4

The target in test [11] is T5, His-tagged FcγRIIIa (V158) (human, UniProt P08637 17-208).
T5 construct: not shown: His tag
Briefly: Bio-Layer Interferometry; His-tagged FcγRIIIa (V158) on anti-Penta-HIS tips, antibody in solution. The procedure:
All measurements were performed at 25° C. with agitation at 1000 rpm. […] Sensograms were referenced for buffer effects and then fitted using the Octet QK384 user software (Pall ForteBio, USA). Kinetic responses were subjected to a global fitting using a one site binding model to obtain values for association (Kₒₙ), dissociation (Koff) rate constants and the equilibrium dissociation constant (KD). Only curves that could be reliably fitted with the software (R²>0.90) were included in the analysis.
BLI was performed as described above.

The target of test [12] is T6, human HER2 (human, UniProt P04626 23-652).
T6 construct: also called human HER2 (Sino Biological Inc.)
Briefly: ELISA, plate coated with 0.1 ug/ml human HER2, antibody titrated, absorbance 450 nm. The procedure:
as §3, §4

The target of test [13] is T3, human HER3 expressed on cells (HEK293 …). Description: flow cytometry on HEK293T HER3 O/E cells, 10 ug antibody as printed, FITC-conjugated anti-Fc secondary. The procedure:
The cells were washed with buffer (PBS with 2 mM EDTA and 0.5% BSA) and resuspended in FITC-conjugated anti-FC antibody (Invitrogen, USA) at 10 μg/ml for 20 min at 4° C. Cells were washed again and resuspended in 200 μL of FACS flow buffer (PBS with 5 mM EDTA) for flow cytometric analysis using MACSQuant 10 (Miltenyi Biotec, Germany). Unstained WT and transfected HEK293 cells were included in the analysis as negative controls. After acquisition, all raw data were analyzed using Flowlogic software. Cells were gated using forward and side scatter profile percentage of positive cells was determined for native and overexpressing cell populations.

Test [14] shares this target. Briefly: flow cytometry, HEK293 cells overexpressing human HER3, 20 ug/ml antibody, FITC anti-Fc secondary; same antibody on WT HEK293: 0.60. The procedure:
as §2

Test [15] shares this target. The description is as above. The procedure: as §2
This is another data set of the same source.

The target in test [16] is T7, human EGFR (human, UniProt P00533 25-645).
T7 construct: also called human HER1 (EGFR) (Sino Biological Inc.)
Briefly: ELISA, plate coated with 0.1 ug/ml human EGFR, antibody titrated, absorbance 450 nm. The protocol:
as §3, §4

The target in test [17] is T1, human HER3 polypeptide. Briefly: ELISA, plate coated with 0.1 ug/ml human HER3, antibody titrated, absorbance 450 nm. The protocol: as §3, §4
This is another data set of the same source.

Test [18] deals with T8, mouse HER3 (mouse, UniProt Q61526 20-641).
T8 construct: also called mouse homologue of HER3 (Sino Biological Inc.); M. musculus HER3
T8 sequence (Q61526 20-641 limits assumed): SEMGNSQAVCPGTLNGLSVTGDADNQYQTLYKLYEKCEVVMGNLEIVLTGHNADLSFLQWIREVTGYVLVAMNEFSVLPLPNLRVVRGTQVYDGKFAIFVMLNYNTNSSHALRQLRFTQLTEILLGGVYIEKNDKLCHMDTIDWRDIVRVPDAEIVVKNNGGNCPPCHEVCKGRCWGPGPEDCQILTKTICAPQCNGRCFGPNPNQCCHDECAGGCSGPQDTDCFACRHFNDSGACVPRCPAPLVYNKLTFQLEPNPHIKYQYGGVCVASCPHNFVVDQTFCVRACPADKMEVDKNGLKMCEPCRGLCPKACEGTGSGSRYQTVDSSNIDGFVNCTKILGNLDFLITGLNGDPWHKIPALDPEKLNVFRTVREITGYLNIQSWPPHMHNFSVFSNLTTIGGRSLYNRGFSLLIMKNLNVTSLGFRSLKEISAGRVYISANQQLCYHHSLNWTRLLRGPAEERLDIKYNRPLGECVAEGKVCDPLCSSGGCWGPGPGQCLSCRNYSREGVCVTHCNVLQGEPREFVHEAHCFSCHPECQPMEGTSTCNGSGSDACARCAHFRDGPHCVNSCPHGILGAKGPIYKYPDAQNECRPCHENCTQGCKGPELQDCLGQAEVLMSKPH
Briefly: ELISA, plate coated with 0.1 ug/ml mouse HER3, antibody titrated, absorbance 450 nm. The protocol: as §3, §4

Test [19] has as its target T2, His-tagged human HER3. Description: BLI (Octet QK384), antibody on anti-human IgG capture tips, His-tagged human HER3 in solution, global 1:1 fit, R^2 = 0.9898, kon Error 8.22E+03; Response 0.0794 / 0.1744 / 0.3278 / 0.5079 at 35 / 69 / 139 / 278 nM. The procedure:
as §1

The target of test [20] is T9, cynomolgus macaque HER3 (cynomolgus macaque, UniProt G7PIG5 20-643).
T9 construct: also called monkey homologue of HER3 (Sino Biological Inc.); HER3 cyno
T9 sequence (G7PIG5 entry or part of it): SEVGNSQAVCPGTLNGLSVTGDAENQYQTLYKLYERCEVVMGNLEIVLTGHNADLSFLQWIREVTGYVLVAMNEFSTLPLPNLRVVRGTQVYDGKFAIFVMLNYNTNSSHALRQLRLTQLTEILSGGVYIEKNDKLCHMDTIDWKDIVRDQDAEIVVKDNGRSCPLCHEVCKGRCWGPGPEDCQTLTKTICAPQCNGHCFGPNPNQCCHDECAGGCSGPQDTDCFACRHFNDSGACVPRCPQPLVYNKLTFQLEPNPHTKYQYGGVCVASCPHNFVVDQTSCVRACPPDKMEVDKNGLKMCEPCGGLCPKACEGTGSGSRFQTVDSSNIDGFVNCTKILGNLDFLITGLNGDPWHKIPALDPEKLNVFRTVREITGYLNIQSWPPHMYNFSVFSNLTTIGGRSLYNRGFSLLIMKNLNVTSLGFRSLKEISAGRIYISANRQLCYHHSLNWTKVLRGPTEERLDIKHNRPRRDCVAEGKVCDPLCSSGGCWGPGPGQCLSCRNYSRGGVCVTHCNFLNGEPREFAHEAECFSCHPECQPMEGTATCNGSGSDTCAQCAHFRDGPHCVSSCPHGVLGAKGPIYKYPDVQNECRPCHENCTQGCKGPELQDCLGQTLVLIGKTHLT
Description: ELISA, plate coated with 0.1 ug/ml cynomolgus HER3, antibody titrated, absorbance 450 nm. The procedure: as §3, §4

Test [21] has as its target T2, His-tagged human HER3. Briefly: BLI (Octet QK384), antibody on anti-human IgG capture tips, His-tagged human HER3 35-278 nM, global 1:1 fit; kdis Error 1.56E-04. The protocol: as §1

Where a chain is given by its changes, count along the chain named. Read-outs that look alike come from different tables or passages of the source.

T4 sequence (Q62799 20-641 limits assumed): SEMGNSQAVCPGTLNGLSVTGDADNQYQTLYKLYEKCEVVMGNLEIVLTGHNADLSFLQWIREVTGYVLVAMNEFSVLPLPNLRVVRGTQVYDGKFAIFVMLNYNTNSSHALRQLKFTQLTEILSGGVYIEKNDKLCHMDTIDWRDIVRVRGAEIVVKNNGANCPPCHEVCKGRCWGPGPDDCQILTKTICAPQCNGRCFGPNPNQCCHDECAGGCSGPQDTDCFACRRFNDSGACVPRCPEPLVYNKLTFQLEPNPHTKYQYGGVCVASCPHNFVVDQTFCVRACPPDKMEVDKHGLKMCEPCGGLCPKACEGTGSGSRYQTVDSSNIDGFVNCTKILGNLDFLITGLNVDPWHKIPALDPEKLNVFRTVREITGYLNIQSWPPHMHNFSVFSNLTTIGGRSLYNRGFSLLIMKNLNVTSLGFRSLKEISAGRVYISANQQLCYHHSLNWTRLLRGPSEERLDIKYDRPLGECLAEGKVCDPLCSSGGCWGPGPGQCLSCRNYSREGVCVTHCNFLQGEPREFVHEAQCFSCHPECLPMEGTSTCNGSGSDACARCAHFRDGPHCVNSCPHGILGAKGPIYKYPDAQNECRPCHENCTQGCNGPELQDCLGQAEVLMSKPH

B1: anti-HER3 clone 10D1_c90 IgG1 (antibody, V domains shown)
VH: QVQLQESGPGLVKPSQTLFLTCTVSGYSITSGYSWHWIRQHPGKGLEWIGSIRYSGGTDYNPSLKSLVTISVDTSKNQFSLKLSSVTAADTAVYYCARMTTAPWYPFDYWGQGTTVTVSS
VL: DIQMTQSPSSVSASVGDRVTFTCKASQIVGSNVAWYQQKPGKAPEPLIYSASYLYSSVPSRFSGSGSGTEFTMTISSLEPEDFATYYCQQYTTHPLTFGPGTKVEIKR
notes: Humanised 10D1 variant, IgG1/kappa
Turning to B1, the concentration for a half-maximal effect (EC50 (read off the curve)) (as a rule, the concentration at which the effect is half-maximal) in test [1] was approximately 7 ng/mL. Besides, the off-rate constant (koff) (usually a measure of how fast the partners let go of each other) in test [2] was less than 1e-07 s⁻¹. For the same molecule, in [3], the on-rate constant (kon) (usually the rate constant with which the complex forms) is 252000 M⁻¹ s⁻¹. Also, the Kd – broadly, the equilibrium constant for the complex coming apart – in [4] was less than 0.001 nM. Moreover, in test [5], the “% Parent (HER3 positive)” value came out at 41.8%.

B2: anti-HER3 clone 10D1_c91 IgG1 (antibody, V domains shown)
VH: B1 VH with F19S, S28Y, V68A, V72A, T115A
VL: DIQMTQSPSSVSASVGDRVTITCKASQIVGSNVAWYQQKPGKAPMPLIYSASYGYSGVPSRFSGSGSGTDFTLTISSLQPEDFATYYCQQYSSHPLTFGQGTKLEIKR
notes: as for B1
As for B2, the kon in test [6] is 269000 M⁻¹ s⁻¹. Further, in test [1], the “EC50 (read off the curve)” value was approximately 5 ng/mL. Moreover, the “% Parent (HER3 positive)” value in test [7] was determined as 48%. In addition, the dissociation constant Kd in test [4] stood at 0.176 nM. In test [8], this molecule displayed a koff of 4.73e-05 s⁻¹.

B3: anti-HER3 clone 10D1 IgG1 (antibody)
heavy: not shown
light: DIVMTQSQKFMSTSVGDRVSVTCKASQIVGSNVAWYQQKPGQSPKPLIYSASYRYSGVPDRFTASGSGTDFTLTITNVQSEDLAEYFCQQYSSHPLTFGAGTKLELKRTVAAPSVFIFPPSDEQLKSGTASVVCLLNNFYPREAKVQWKVDNALQSGNSQESVTEQDSKDSTYSLSSTLTLSKADYEKHKVYACEVTHQGLSSPVTKSFNRGEC
notes: Mouse variable regions on human IgG1/kappa constant regions (human-mouse chimeric antibody); also called 10D1P; 10D1 (parental)
With B3, the EC50 (commonly the concentration needed to bring the measured effect to its halfway point) in [9] was 0.372 nM; in [10] it was 0.00588 nM; in [17], 0.00588 nM; in test [18], 0.137 nM; in test [20], 0.00368 nM. In addition, the Kd in [11] was found to be 298 nM; in test [4], 9.58 nM. In addition, the figures for the koff in test [11] and in [21] were 0.04 s⁻¹ and 0.00173 s⁻¹, respectively. Also, the kon was found to be 130000 M⁻¹ s⁻¹ in test [11] and 180000 M⁻¹ s⁻¹ in test [19]. The binding result in [12] and in test [16] was “no binding (tested: log(M) about -6.7)” throughout. In addition, the results for the “% Parent (HER3 positive)” value in test [13], in [14] and in [15] were 65.7%, 99% and 99%, respectively.
